# Measurements published in patent US8058034B2, “Mutated D-aminotransferase and method for producing optically active glutamic acid derivatives using the same” (Ajinomoto Co., Inc., priority 2002, dated 2011).
# B1: pUCBMDAT: wild-type D-aminotransferase derived from Bacillus macerans AJ1617 (SEQ ID NO:2), expressed in E. coli (protein)
# chain: MAYSLWNDQIVEEGSIAISPEDRGYQFGDGIYEVIKVYNGNMFTAQEHIDRFYASAEKIRLVIPYTKDVLHKLLHELIEKNNLETGHVYFQITRGANSRNHVFPDASIPAVLTGNVKAGERAYENFEKGVKATFVEDIRWLRCDIKSLNLLGAVLAKQEAAEKGCYEAILHRGDIVTECSSANVYGIKDGKLYTHPANNFILNGITRQVILKCAEEINLPVIEEPMTKADLLTMDEIIVSSVSSEVTPVIDVDGNQIGAGVPGEWTRQLQQSFEAKLPLSMNTK
# modifications: Bacillus macerans
# B2: PUCBSDAT: wild-type D-transaminase derived from Bacillus sphaericus ATCC 10208 (SEQ ID NO:4), expressed in E. coli (protein, listed as Bacillus sphaericus)
# chain: MAYSLWNDQIVEEGSITISPEDRGYQFGDGIYEVIKVYNGHMFTAQEHIDRFYASAEKIRLVIPYTKDVLHKLLHDLIEKNNLNTGHVYFQITRGTTSRNHIFPDASVPAVLTGNVKTGERSIENFEKGVKATLVEDVRWLRCDIKSLNLLGAVLAKQEASEKGCYEAILHRGDIITECSSANVYGIKDGKLYTHPANNYILNGITRQVILKCAAEINLPVIEEPMTKGDLLTMDEIIVSSVSSEVTPVIDVDGQQIGAGVPGEWTRKLQKAFEAKLPISINA
# Assays:
# [1] = Stability of IHOG in amination reaction solution with no microbial cell addition; format: physicochemical; details: 300 mM 4R,S-IHOG, pH 8.3, 37° C., no cells
# Experimental: Another reason therefor would be instability of IHOG, the material for producing monatin, in a certain pH. In order to test stability of IHOG in the amination reaction of IHOG, the present inventors measured a change of IHOG concentration with time in an amination reaction solution of IHOG with no microbial cell addition. The reaction was performed by shaking a test tube containing 1 ml of reaction solution composed of 100 mM potassium phosphate buffer (pH 8.3), 300 mM 4R,S-IHOG, 600 mM DL-Ala and 1 mM pyridoxal-5′-phosphate at 37° C. for 40 hours. As a result, a residual ratio of 4R,S-IHOG was decreased to 81% after 16 hours, 70% after 24 hours and 57% after 40 hours, respectively. […] It is presumed that this phenomenon is due to a decomposition reaction where IHOG is decomposed into 3-indole-pyruvic acid and pyruvic acid and a cyclization reaction of IHOG, to consume IHOG in the reaction solution before being converted to monatin. That is, the reaction catalyzed by the D-aminotransferase derived from the genus Bacillus or Paenibacillus is not sufficiently fast, and a part of IHOG becomes unavailable for the amination due to the decomposition and the cyclization before the amination. This is thought to be one reason why (2R,4R) monatin can not be efficiently produced.
# [2] = IHOG amination with washed cells of BMDAT-expressing E. coli (Example 3); format: biochemical; details: 50 mM IHOG, 200 mM D-alanine, pH 8.0, 33° C., 16 hours, cells 2% (w/v)
# Experimental: (§1) E. coli transformants with pUCBMDAT were inoculated to 3 mL of LB medium (1 g/dL of bacto tryptone, 0.5 g/dL of yeast extract and 1 g/dL of NaCl) containing 0.1 mg/mL of ampicillin and 0.1 mM isopropyl-1-thio-β-D-galactopyranoside (IPTG). The medium was then cultured with shaking at 37° C. for 16 hours. Cells were collected from the cultured medium and washed to prepare cells of the BMDAT-expressing E. coli.
# The microbial cells prepared in (1) above were suspended at 2% (w/v) in 1 mL of a reaction liquid composed of 100 mM Tris-HCl (pH 8.0), 50 mM IHOG, 200 mM D-alanine, 1 mM pyridoxal-5′-phosphate and 0.5% (v/v) toluene. The suspension was then incubated with shaking at 33° C. for 16 hours, and the amount of 2R-monatin thus produced was determined. As a result, 16.4 mM of (2R,4S)-monatin and 17.0 mM of (2R,4R)-monatin were produced.
# [3] = PHOG amination with washed cells of BMDAT-expressing E. coli (Example 3); format: biochemical; details: 50 mM PHOG, 200 mM D-alanine, pH 8.0
# Experimental: as §1
# The reaction was also performed in a reaction liquid composed of 100 mM Tris-HCl (pH 8.0), 50 mM PHOG, 200 mM D-alanine, 1 mM pyridoxal-5′-phosphate and 0.5% (v/v) toluene. The amount of 2R-PHG thus produced after the incubation was determined. As a result, 17.1 mM of (2R,4S)-PHG and 19.2 mM of (2R,4R)-PHG were produced.
# [4] = Amination reaction of PHOG with mutated BMDAT-expressing E. coli (Example 5); format: biochemical; details: 50 mM 4R,S-PHOG, 16 hours
# Experimental: (§2) E. coli transformants containing each plasmid with mutated BMDAT gene or pUCBMDAT were inoculated to 3 mL of LB medium (1 g/dL of bacto tryptone, 0.5 g/dL of yeast extract and 1 g/dL of NaCl) containing 0.1 mg/mL of ampicillin and 0.1 mM isopropyl-1-thio-β-D-galactopyranoside (IPTG). The medium was then cultured with shaking at 37° C. for 16 hours. Cells were harvested from the cultured medium and washed Expression of each mutated BMDAT was confirmed with SDS-PAGE. Cells harvested form 250 μL of the cultured broth were resuspended in 500 μL of an SDS-PAGE sample buffer and boiled for 10 minutes for cell lysis and denaturation. 5 to 10 μL of the supernatant obtained by centrifugation (10,000×g, 10 min.) was subjected to SDS-PAGE.
# (§3) Using a series of mutated BMDAT-expressing E. coli strains prepared in Example 4 as a catalyst, 2R-monatin was produced from 4R,S-IHOG, and 2R-PHG was produced from 4R,S-PHOG. The microbial cells collected by centrifuging 400 μL of the cultured medium were suspended in a reaction solution having the following composition.
# Reaction solution of PHOG: 100 mM Tris-HCl (pH 8.0), 50 mM 4R,S-PHOG, 200 mM D-alanine, 1 mM pyridoxal-5′-phosphate and 0.5% (v/v) toluene
# (§4) The suspension was incubated at 30° C. for 16 hours, and then the amount of 2R-monatin and 2R-PHG thus produced were determined.
# [5] = Amination reaction of IHOG with mutated BMDAT-expressing E. coli (Example 5); format: biochemical; details: 50 mM 4R,S-IHOG, 16 hours
# Experimental: as §2, §3
# (§5) Reaction solution of IHOG: 100 mM Tris-HCl (pH 8.0), 50 mM 4R,S-IHOG, 200 mM D-alanine, 1 mM pyridoxal-5′-phosphate and 0.5% (v/v) toluene
# as §4
# [6] = PHOG amination reaction with mutated BMDAT-expressing E. coli (Example 10); format: biochemical; details: 100 mM 4R,S-PHOG, 16 hours
# Experimental: as §3, with “9,” for “4 as a catalyst,”, “prepared” for “collected”
# Reaction solution of PHOG: 100 mM Tris-HCl (pH 8.0), 100 mM 4R,S-PHOG, 400 mM D-alanine, 1 mM pyridoxal-5′-phosphate and 0.5% (v/v) toluene
# (§6) The suspension was incubated at 30° C. for 16 hours, and then the amount of 2R-monatin and 2R-PHG thus produced were analyzed.
# [7] = IHOG amination reaction with mutated BMDAT-expressing E. coli (Example 10); format: biochemical; details: 100 mM 4R,S-IHOG, 16 hours
# Experimental: as §3, with “9,” for “4 as a catalyst,”, “prepared” for “collected”
# Reaction solution of IHOG: 100 mM Tris-HCl (pH 8.0), 100 mM 4R,S-IHOG, 400 mM D-alanine, 1 mM pyridoxal-5′-phosphate and 0.5% (v/v) toluene
# as §6
# [8] = DAT activity of mutated BMDAT: transamination from D-alanine to α-ketoglutaric acid, coupled lactate dehydrogenase assay; format: biochemical, E. coli; details: 10 mM D-alanine, 10 mM α-ketoglutaric acid, pH 8.0, 30° C., cell sonicate supernatant
# Experimental: E. coli transformants containing each plasmid with mutated BMDAT gene or pUCBMDAT were inoculated to 3 mL of casamino acid medium (0.5 g/dL of ammonium sulfate, 0.14 g/dL of KH2PO4, 0.23 g/dL of citrate 2Na.3H2O, 0.1 g/dL of MgSO4.7H2O, 2 mg/dl of FeSO4, 2 mg/dl of MnSO4, 2 mg/dL of pyridoxine hydrochloride, 0.1 mg/dL of thiamine, 1 g/dL of casamino acid, 0.3 g/dL of glycerol, pH 7.5) containing 0.1 mg/mL of ampicillin and 0.1 mM IPTG. The medium was then cultured with shaking at 37° C. for 16 hours. Cells were collected from 1 mL of the cultured medium, washed, suspended in 1 mL of 20 mM Tris-HCl (pH 7.6), and ultrasonically disrupted at 4° C. for 30 min. The sonicates were centrifuged at 15,000 rpm for 5 minutes, and the supernatant thereof was used as an enzyme catalyst. For the measurement of the D-aminotransferase activity (hereinbelow referred to as DAT activity), the transamination activity with D-alanine as the amino donor to α-ketoglutaric acid was enzymatically measured by analyzing pyruvic acid produced from D-alanine as the reaction proceeds.
# Reaction conditions: 100 mM Tris-HCl (pH 8.0), 0.2 mM NADH, 0.1 mM pyridoxal-5′-phosphate, 5 U/mL lactate dehydrogenase, 10 mM D-alanine, 10 mM α-ketoglutaric acid, 30° C. A reduction of absorbance at 340 nm was measured.
# [9] = IHOG amination with washed cells of BSDAT-expressing E. coli (Example 6); format: biochemical; details: 50 mM IHOG, 200 mM D-alanine, pH 7.6, 30° C., 18 hours, cells 5% (w/v)
# Experimental: E. coli transformants containing pUCBSDAT were cultivated in the LB medium (1 g/dL of bacto tryptone, 0.5 g/dL of yeast extract and 1 g/dL of NaCl) containing 0.1 mg/mL of ampicillin at 37° C. for 16 hours. Subsequently, 1 mL of thus obtained broth was added to a 500 mL Sakaguchi flask in which contains 50 mL of the LB medium, and main cultivation was performed at 37° C. After 2.5 hours of cultivation, isopropyl-1-thio-β-D-galactopyranoside (IPTG) was added thereto at a final concentration of 1 mM, and the cultivation was performed for additional 4 hours. Cells were harvested from the cultured medium and washed to prepare the cells of BSDAT-expressing E. coli.
# The microbial cells prepared in the above (2) were suspended at 5% (w/v) in 1 mL of a reaction liquid composed of 100 mM Tris-HCl (pH 7.6), 50 mM IHOG, 200 mM D-alanine, 1 mM pyridoxal-5′-phosphate and 0.5% (v/v) toluene. One ml of the suspension was then transferred to a 10 mL test tube, and incubated with shaking at 30° C. for 18 hours. After the incubation, the amount of 2R-monatin thus produced was determined. As a result, 13.8 mM (2R,4R)-monatin and 12.7 mM (2R,4S)-monatin were produced from IHOG.
# [10] = IHOG amination reaction with mutated BSDAT-expressing E. coli (Example 8); format: biochemical; details: 50 mM 4R,S-IHOG, 16 hours
# Experimental: E. coli transformants containing each plasmid with mutated BSDAT gene or pUCBSDAT were inoculated to 3 mL of LB medium (1 g/dL of bacto tryptone, 0.5 g/dL of yeast extract and 1 g/dL of NaCl) containing 0.1 mg/mL of ampicillin and 0.1 mM isopropyl-1-thio-β-D-galactopyranoside (IPTG). The medium was then cultured with shaking at 37° C. for 16 hours. Cells were collected from the cultured medium and washed to prepare the BSDAT-expressing E. coli. Expression of each mutated BSDAT was confirmed by SDS-PAGE. The cells harvested from 250 μL of the cultured medium were resuspended in 500 μL of an SDS-PAGE sample buffer and boiled for 10 minutes for cell lysis and denaturation, and 5 to 10 μL of the supernatant obtained by centrifugation (10,000×g, 10 min.) was subjected to SDS-PAGE.
# Using a series of mutated BSDAT-expressing E. coli strains prepared in Example 7, 2R-monatin was produced from 4R,S-IHOG. The microbial cells prepared by centrifuging 400 μL of the cultured medium were suspended in the reaction solution having the following composition.
# as §5
# The suspension was incubated at 30° C. for 16 hours, and then the amount of 2R-monatin thus produced was analyzed.
# [11] = 200 mM D-alanine, pH 8.0, 30° C.
# [12] = 400 mM D-alanine, pH 8.0, 30° C.
molecule,measurement,setting,value
"O=C(O)C(=O)CC(O)(Cc1c[nH]c2ccccc12)C(=O)O (racemic) [4R,S-IHOG, 4-(indol-3-ylmethyl)-4-hydroxy-2-oxoglutaric acid]","residual ratio of 4R,S-IHOG",[1]; after 16 hours,81%
same,"residual ratio of 4R,S-IHOG",[1]; after 24 hours,70%
B1,"(2R,4R)-monatin produced",[2],17.0 mM
same,"(2R,4S)-monatin produced",[2],16.4 mM
same,"(2R,4R)-PHG produced",[3],19.2 mM
same,"(2R,4S)-PHG produced",[3],17.1 mM
same,"2R,4R-PHG",[4]; [11],19.2 mM
same,"2R,4S-PHG",[4]; [11],17.1 mM
same,"4R selectivity (ratio of (2R,4R) isomer out of total 2R-PHG)",[4]; 30° C.,53%
same,"2R,4R-monatin",[5]; [11],17.0 mM
same,"2R,4S-monatin",[5]; [11],16.4 mM
same,"4R selectivity (ratio of (2R,4R) isomer out of total 2R-monatin)",[5]; 30° C.,51%
same,"2R,4R-PHG",[6]; [12],34.2 mM
same,"2R,4S-PHG",[6]; [12],34.9 mM
same,4R selectivity,[6]; 30° C.,49%
same,"2R,4R-monatin",[7]; [12],19.1 mM
same,"2R,4S-monatin",[7]; [12],18.3 mM
same,4R selectivity,[7]; 30° C.,51%
same,DAT activity,[8],6.3 U/mg
B2,"(2R,4R)-monatin produced",[9],13.8 mM
same,"(2R,4S)-monatin produced",[9],12.7 mM
same,"2R,4R-monatin",[10]; [11],13.8 mM
same,"2R,4S-monatin",[10]; [11],12.7 mM
same,4R selectivity,[10]; 30° C.,52%
